The values below come from patent US20230365662A1.

To fix the notation:
B1: KB001 mouse Fab VL T24M (Fab, V domains shown)
VH: EVQLKQSGPGLVAPSQSLSITCTVSGFSLSIYSVHWVRQPPGKGLEWLGMIWGGGSSDYNSALKSRLSISKDNSKSQVFLKMNSLQTDDTAMYYCARNGNFYAMDYWGQGTSVTVSS
VL: QIVLTQSPAIMSASLGERVTMTCMASSSVSSSFLHWYQQKPGSSPQLWIYSTSNLASGVPARFSGSGSGTSYSLTISSMEAEDAATYYCHQYHHSPYIYTFGGGTKLEIK
B2: KB001 mouse Fab VL A25T (Fab, V domains shown)
VH: EVQLKQSGPGLVAPSQSLSITCTVSGFSLSIYSVHWVRQPPGKGLEWLGMIWGGGSSDYNSALKSRLSISKDNSKSQVFLKMNSLQTDDTAMYYCARNGNFYAMDYWGQGTSVTVSS
VL: QIVLTQSPAIMSASLGERVTMTCTTSSSVSSSFLHWYQQKPGSSPQLWIYSTSNLASGVPARFSGSGSGTSYSLTISSMEAEDAATYYCHQYHHSPYIYTFGGGTKLEIK
B3: KB001 mouse Fab VL S30F (Fab, V domains shown)
VH: EVQLKQSGPGLVAPSQSLSITCTVSGFSLSIYSVHWVRQPPGKGLEWLGMIWGGGSSDYNSALKSRLSISKDNSKSQVFLKMNSLQTDDTAMYYCARNGNFYAMDYWGQGTSVTVSS
VL: QIVLTQSPAIMSASLGERVTMTCTASSSVFSSFLHWYQQKPGSSPQLWIYSTSNLASGVPARFSGSGSGTSYSLTISSMEAEDAATYYCHQYHHSPYIYTFGGGTKLEIK
B4: KB001 mouse Fab VL S30G (Fab, V domains shown)
VH: EVQLKQSGPGLVAPSQSLSITCTVSGFSLSIYSVHWVRQPPGKGLEWLGMIWGGGSSDYNSALKSRLSISKDNSKSQVFLKMNSLQTDDTAMYYCARNGNFYAMDYWGQGTSVTVSS
VL: QIVLTQSPAIMSASLGERVTMTCTASSSVGSSFLHWYQQKPGSSPQLWIYSTSNLASGVPARFSGSGSGTSYSLTISSMEAEDAATYYCHQYHHSPYIYTFGGGTKLEIK
B5: KB001 mouse Fab VL S27K (Fab, V domains shown)
VH: EVQLKQSGPGLVAPSQSLSITCTVSGFSLSIYSVHWVRQPPGKGLEWLGMIWGGGSSDYNSALKSRLSISKDNSKSQVFLKMNSLQTDDTAMYYCARNGNFYAMDYWGQGTSVTVSS
VL: QIVLTQSPAIMSASLGERVTMTCTASKSVSSSFLHWYQQKPGSSPQLWIYSTSNLASGVPARFSGSGSGTSYSLTISSMEAEDAATYYCHQYHHSPYIYTFGGGTKLEIK
B6: KB001 mouse Fab VL S28P (Fab, V domains shown)
VH: EVQLKQSGPGLVAPSQSLSITCTVSGFSLSIYSVHWVRQPPGKGLEWLGMIWGGGSSDYNSALKSRLSISKDNSKSQVFLKMNSLQTDDTAMYYCARNGNFYAMDYWGQGTSVTVSS
VL: QIVLTQSPAIMSASLGERVTMTCTASSPVSSSFLHWYQQKPGSSPQLWIYSTSNLASGVPARFSGSGSGTSYSLTISSMEAEDAATYYCHQYHHSPYIYTFGGGTKLEIK
B7: KB001 mouse Fab VL S28G (Fab, V domains shown)
VH: EVQLKQSGPGLVAPSQSLSITCTVSGFSLSIYSVHWVRQPPGKGLEWLGMIWGGGSSDYNSALKSRLSISKDNSKSQVFLKMNSLQTDDTAMYYCARNGNFYAMDYWGQGTSVTVSS
VL: QIVLTQSPAIMSASLGERVTMTCTASSGVSSSFLHWYQQKPGSSPQLWIYSTSNLASGVPARFSGSGSGTSYSLTISSMEAEDAATYYCHQYHHSPYIYTFGGGTKLEIK
B8: KB001 mouse Fab VL T24K (Fab, V domains shown)
VH: EVQLKQSGPGLVAPSQSLSITCTVSGFSLSIYSVHWVRQPPGKGLEWLGMIWGGGSSDYNSALKSRLSISKDNSKSQVFLKMNSLQTDDTAMYYCARNGNFYAMDYWGQGTSVTVSS
VL: QIVLTQSPAIMSASLGERVTMTCKASSSVSSSFLHWYQQKPGSSPQLWIYSTSNLASGVPARFSGSGSGTSYSLTISSMEAEDAATYYCHQYHHSPYIYTFGGGTKLEIK
B9: KB001 mouse Fab VL S28V (Fab, V domains shown)
VH: EVQLKQSGPGLVAPSQSLSITCTVSGFSLSIYSVHWVRQPPGKGLEWLGMIWGGGSSDYNSALKSRLSISKDNSKSQVFLKMNSLQTDDTAMYYCARNGNFYAMDYWGQGTSVTVSS
VL: QIVLTQSPAIMSASLGERVTMTCTASSVVSSSFLHWYQQKPGSSPQLWIYSTSNLASGVPARFSGSGSGTSYSLTISSMEAEDAATYYCHQYHHSPYIYTFGGGTKLEIK
B10: KB001 mouse Fab VL S31P (Fab, V domains shown)
VH: EVQLKQSGPGLVAPSQSLSITCTVSGFSLSIYSVHWVRQPPGKGLEWLGMIWGGGSSDYNSALKSRLSISKDNSKSQVFLKMNSLQTDDTAMYYCARNGNFYAMDYWGQGTSVTVSS
VL: QIVLTQSPAIMSASLGERVTMTCTASSSVSPSFLHWYQQKPGSSPQLWIYSTSNLASGVPARFSGSGSGTSYSLTISSMEAEDAATYYCHQYHHSPYIYTFGGGTKLEIK
B11: KB001 mouse Fab VL S31E (Fab, V domains shown)
VH: EVQLKQSGPGLVAPSQSLSITCTVSGFSLSIYSVHWVRQPPGKGLEWLGMIWGGGSSDYNSALKSRLSISKDNSKSQVFLKMNSLQTDDTAMYYCARNGNFYAMDYWGQGTSVTVSS
VL: QIVLTQSPAIMSASLGERVTMTCTASSSVSESFLHWYQQKPGSSPQLWIYSTSNLASGVPARFSGSGSGTSYSLTISSMEAEDAATYYCHQYHHSPYIYTFGGGTKLEIK
B12: KB001 mouse Fab VL S28K (Fab, V domains shown)
VH: EVQLKQSGPGLVAPSQSLSITCTVSGFSLSIYSVHWVRQPPGKGLEWLGMIWGGGSSDYNSALKSRLSISKDNSKSQVFLKMNSLQTDDTAMYYCARNGNFYAMDYWGQGTSVTVSS
VL: QIVLTQSPAIMSASLGERVTMTCTASSKVSSSFLHWYQQKPGSSPQLWIYSTSNLASGVPARFSGSGSGTSYSLTISSMEAEDAATYYCHQYHHSPYIYTFGGGTKLEIK
B13: KB001 mouse Fab VL S26D (Fab, V domains shown)
VH: EVQLKQSGPGLVAPSQSLSITCTVSGFSLSIYSVHWVRQPPGKGLEWLGMIWGGGSSDYNSALKSRLSISKDNSKSQVFLKMNSLQTDDTAMYYCARNGNFYAMDYWGQGTSVTVSS
VL: QIVLTQSPAIMSASLGERVTMTCTADSSVSSSFLHWYQQKPGSSPQLWIYSTSNLASGVPARFSGSGSGTSYSLTISSMEAEDAATYYCHQYHHSPYIYTFGGGTKLEIK
B14: KB001 mouse Fab VL T24H (Fab, V domains shown)
VH: EVQLKQSGPGLVAPSQSLSITCTVSGFSLSIYSVHWVRQPPGKGLEWLGMIWGGGSSDYNSALKSRLSISKDNSKSQVFLKMNSLQTDDTAMYYCARNGNFYAMDYWGQGTSVTVSS
VL: QIVLTQSPAIMSASLGERVTMTCHASSSVSSSFLHWYQQKPGSSPQLWIYSTSNLASGVPARFSGSGSGTSYSLTISSMEAEDAATYYCHQYHHSPYIYTFGGGTKLEIK
B15: KB001 mouse Fab VL S31Y (Fab, V domains shown)
VH: EVQLKQSGPGLVAPSQSLSITCTVSGFSLSIYSVHWVRQPPGKGLEWLGMIWGGGSSDYNSALKSRLSISKDNSKSQVFLKMNSLQTDDTAMYYCARNGNFYAMDYWGQGTSVTVSS
VL: QIVLTQSPAIMSASLGERVTMTCTASSSVSYSFLHWYQQKPGSSPQLWIYSTSNLASGVPARFSGSGSGTSYSLTISSMEAEDAATYYCHQYHHSPYIYTFGGGTKLEIK
B16: KB001 mouse Fab VL S26N (Fab, V domains shown)
VH: EVQLKQSGPGLVAPSQSLSITCTVSGFSLSIYSVHWVRQPPGKGLEWLGMIWGGGSSDYNSALKSRLSISKDNSKSQVFLKMNSLQTDDTAMYYCARNGNFYAMDYWGQGTSVTVSS
VL: QIVLTQSPAIMSASLGERVTMTCTANSSVSSSFLHWYQQKPGSSPQLWIYSTSNLASGVPARFSGSGSGTSYSLTISSMEAEDAATYYCHQYHHSPYIYTFGGGTKLEIK
B17: KB001 mouse Fab VL S28W (Fab, V domains shown)
VH: EVQLKQSGPGLVAPSQSLSITCTVSGFSLSIYSVHWVRQPPGKGLEWLGMIWGGGSSDYNSALKSRLSISKDNSKSQVFLKMNSLQTDDTAMYYCARNGNFYAMDYWGQGTSVTVSS
VL: QIVLTQSPAIMSASLGERVTMTCTASSWVSSSFLHWYQQKPGSSPQLWIYSTSNLASGVPARFSGSGSGTSYSLTISSMEAEDAATYYCHQYHHSPYIYTFGGGTKLEIK
B18: KB001 mouse Fab VL T24E (Fab, V domains shown)
VH: EVQLKQSGPGLVAPSQSLSITCTVSGFSLSIYSVHWVRQPPGKGLEWLGMIWGGGSSDYNSALKSRLSISKDNSKSQVFLKMNSLQTDDTAMYYCARNGNFYAMDYWGQGTSVTVSS
VL: QIVLTQSPAIMSASLGERVTMTCEASSSVSSSFLHWYQQKPGSSPQLWIYSTSNLASGVPARFSGSGSGTSYSLTISSMEAEDAATYYCHQYHHSPYIYTFGGGTKLEIK
B19: KB001 mouse Fab VL A25F (Fab, V domains shown)
VH: EVQLKQSGPGLVAPSQSLSITCTVSGFSLSIYSVHWVRQPPGKGLEWLGMIWGGGSSDYNSALKSRLSISKDNSKSQVFLKMNSLQTDDTAMYYCARNGNFYAMDYWGQGTSVTVSS
VL: QIVLTQSPAIMSASLGERVTMTCTFSSSVSSSFLHWYQQKPGSSPQLWIYSTSNLASGVPARFSGSGSGTSYSLTISSMEAEDAATYYCHQYHHSPYIYTFGGGTKLEIK

“And” between values parts separate entries of the source, which are not always exact repeats. Equal values may be shown once.

The target of the test is HRgpA-6H (Porphyromonas gingivalis) (UniProt P28784). The experiment in a line: ELISA, FASEBA Fab on coated HRgpA-6H. On the technique in general: An ELISA detects its analyte on a solid surface through an enzyme-linked reagent.
Chain of UniProt P28784 (P28784 228-991): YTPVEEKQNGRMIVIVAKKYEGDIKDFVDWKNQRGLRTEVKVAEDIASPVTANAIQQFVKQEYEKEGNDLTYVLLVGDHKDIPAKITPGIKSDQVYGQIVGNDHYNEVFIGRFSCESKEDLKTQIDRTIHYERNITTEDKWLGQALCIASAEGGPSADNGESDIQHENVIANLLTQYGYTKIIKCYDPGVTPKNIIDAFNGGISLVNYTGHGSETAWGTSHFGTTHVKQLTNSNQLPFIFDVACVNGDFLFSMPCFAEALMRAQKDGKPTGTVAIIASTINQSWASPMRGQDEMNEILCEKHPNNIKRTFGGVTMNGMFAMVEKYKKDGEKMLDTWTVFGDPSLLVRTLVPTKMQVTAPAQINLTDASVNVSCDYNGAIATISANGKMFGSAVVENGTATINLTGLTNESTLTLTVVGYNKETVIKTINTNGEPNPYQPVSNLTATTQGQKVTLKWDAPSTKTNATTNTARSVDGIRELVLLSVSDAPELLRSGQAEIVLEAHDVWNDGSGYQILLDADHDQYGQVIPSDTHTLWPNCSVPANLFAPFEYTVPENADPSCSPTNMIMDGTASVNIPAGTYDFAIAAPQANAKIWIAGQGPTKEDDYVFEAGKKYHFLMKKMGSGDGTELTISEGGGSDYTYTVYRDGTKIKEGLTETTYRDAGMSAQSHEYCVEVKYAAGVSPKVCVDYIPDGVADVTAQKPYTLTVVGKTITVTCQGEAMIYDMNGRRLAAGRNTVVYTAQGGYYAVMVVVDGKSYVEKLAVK
Turning to B1, the OD450nm is 0.797 and 0.75; the Ratio OD(Variant)/OD(WT) is 1.04 and 0.975.
As for B2, the OD450nm was 0.823 and 0.801; the Ratio OD(Variant)/OD(WT) was 1.05 and 1.02.
As for B3, the OD450nm came to 0.911 and the Ratio OD(Variant)/OD(WT) stood at 1.06.
For B4, the OD450nm is 0.916 and 0.858; the Ratio OD(Variant)/OD(WT) is 1.06 and 0.995.
Turning to B5, the OD450nm is 0.783 and 0.745 and 0.697; the Ratio OD(Variant)/OD(WT) is 1.04 and 0.993 and 0.929.
For the molecule B6, the OD450nm was 0.808 and 0.726; the Ratio OD(Variant)/OD(WT) was 1.08 and 0.967.
With B7, the OD450nm was determined as 0.818 and the Ratio OD(Variant)/OD(WT) turned out to be 1.09.
For B8, the OD450nm was 0.797 and 0.734; the Ratio OD(Variant)/OD(WT) was 1.04 and 0.954.
With B9, the OD450nm was 0.786 and 0.731 and 0.717; the Ratio OD(Variant)/OD(WT) is 1.05 and 0.974 and 0.955.
For the molecule B10, the OD450nm is 0.87 and 0.875 and 0.856; the Ratio OD(Variant)/OD(WT) was 1.03 and 1.04 and 1.01.
B11: the OD450nm was 0.903 and 0.798; the Ratio OD(Variant)/OD(WT) is 1.07 and 0.944.
As to B12, the OD450nm was 0.801 and the Ratio OD(Variant)/OD(WT) was 1.07.
Turning to B13, the OD450nm turned out to be 0.821 and the Ratio OD(Variant)/OD(WT) is 1.05.
Regarding B14, the OD450nm came out at 0.795 and the Ratio OD(Variant)/OD(WT) worked out at 1.03.
The matching figures for B15: 0.849 and 1.
As to B16, the OD450nm is 0.823 and 0.749; the Ratio OD(Variant)/OD(WT) was 1.05 and 0.957.
As for B17, the OD450nm was 0.817 and 0.745; the Ratio OD(Variant)/OD(WT) is 1.09 and 0.993.
In the case of B18, the OD450nm was 0.852 and 0.81; the Ratio OD(Variant)/OD(WT) was 1.11 and 1.05.
Turning to B19, the OD450nm is 0.818 and 0.827 and 0.775; the Ratio OD(Variant)/OD(WT) is 1.04 and 1.06 and 0.99.
